Drawing on the supplement of paper PMC10567573, this text covers protein stability index for 97 variants.

First the molecules themselves.
B1: MGC16075 (parent)
chain: AGSRQALSFEVPPCNYDPEKWIQ
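Also: lentivirally expressed fusions sorted by FACS into six bins by GFP to DsRed ratio, PSI derived from sequencing read proportions per bin multiplied by bin number.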

This data set covers variants of B1. The data set is described as follows: protein stability index of a GFP-peptide fusion (GPS, HEK-293T) (PSI 1-6); higher = more stable. The note with it: c terminus: native.
In the case of AGSRQALWFEVPPCNYDPEKWIQ [S8W], the protein stability index amounted to 2.05.

Consider AGSRQALGFEVPPCNYDPEKWIQ [S8G], for which the protein stability index stood at 1.83. Then AGSRQALRFEVPPCNYDPEKWIQ [S8R], with 1.89; and AGSRQALAFEVPPCNYDPEKWIQ [S8A], with 1.79; and AGSRQALNFEVPPCNYDPEKWIQ [S8N], with 1.91.

As for AGSRQALCFEVPPCNYDPEKWIQ [S8C], the protein stability index is 2.6. Then AGSRQALVFEVPPCNYDPEKWIQ [S8V], with 1.54; and AGSRQALIFEVPPCNYDPEKWIQ [S8I], with 1.59; and AGSRQALPFEVPPCNYDPEKWIQ [S8P], with 1.91.

In the case of AGSRQALHFEVPPCNYDPEKWIQ [S8H], the protein stability index stood at 2.05. For AGSRQALLFEVPPCNYDPEKWIQ [S8L] the value was 1.98. Then AGSRQALKFEVPPCNYDPEKWIQ [S8K], with 2.09.

Turning to AGSRQALEFEVPPCNYDPEKWIQ [S8E], the protein stability index is 3.24. On to AGSRQALQFEVPPCNYDPEKWIQ [S8Q], for which the protein stability index turned out to be 1.26. Then AGSRQALDFEVPPCNYDPEKWIQ [S8D], with 2.32. On to AGSRQALYFEVPPCNYDPEKWIQ [S8Y], for which the protein stability index turned out to be 3.25. For AGSRQALFFEVPPCNYDPEKWIQ [S8F] the value was 2.92. For AGSRQALTFEVPPCNYDPEKWIQ [S8T] the value was 3.31; for AGSRQALSFEVPPCIYDPEKWIQ [N15I], 2.06. Then AGSRQALSFEVPPCLYDPEKWIQ [N15L], with 1.99. For the variant AGSRQALSFEVPPCGYDPEKWIQ [N15G], the protein stability index turned out to be 2.03.

Take AGSRQALSFEVPPCCYDPEKWIQ [N15C]: the protein stability index turned out to be 2.23. Then AGSRQALSFEVPPCDYDPEKWIQ [N15D], with 1.78; and AGSRQALSFEVPPCTYDPEKWIQ [N15T], with 1.64.

As for AGSRQALSFEVPPCHYDPEKWIQ [N15H], the protein stability index worked out at 1.28. Then AGSRQALSFEVPPCWYDPEKWIQ [N15W], with 2.14; and AGSRQALSFEVPPCYYDPEKWIQ [N15Y], with 2.7; and AGSRQALSFEVPPCQYDPEKWIQ [N15Q], with 3.17. In the case of AGSRQALSFEVPPCRYDPEKWIQ [N15R], the protein stability index was determined as 2.62.

For AGSRQALSFEVPPCKYDPEKWIQ [N15K], the protein stability index came out at 2.53.

For the variant AGSRQALSFEVPPCEYDPEKWIQ [N15E], the protein stability index is 1.58. For AGSRQALSFEVPPCPYDPEKWIQ [N15P] the value was 2.68. Then AGSRQALSFEVPPCMYDPEKWIQ [N15M], with 1.84.

Regarding AGSRQALSFEVPPCFYDPEKWIQ [N15F], the protein stability index was 1.96. As to AGSRQALSFEVPPCSYDPEKWIQ [N15S], the protein stability index was 1.35.

As to AGSRQALSFEVPPCAYDPEKWIQ [N15A], the protein stability index was found to be 1.71. Then AGSRQALSGEVPPCNYDPEKWIQ [F9G], with 3.14; and AGSRQALSIEVPPCNYDPEKWIQ [F9I], with 2.07. Then AGSRQALSWEVPPCNYDPEKWIQ [F9W], with 2.5. AGSRQALSNEVPPCNYDPEKWIQ [F9N]: the protein stability index came out at 3.75. Then AGSRQALSVEVPPCNYDPEKWIQ [F9V], with 2.57; and AGSRQALSLEVPPCNYDPEKWIQ [F9L], with 2.48; and AGSRQALSAEVPPCNYDPEKWIQ [F9A], with 2.63. For AGSRQALSHEVPPCNYDPEKWIQ [F9H] the value was 2.86; for AGSRQALSCEVPPCNYDPEKWIQ [F9C], 2.57. Then AGSRQALSTEVPPCNYDPEKWIQ [F9T], with 2.79; and AGSRQALSQEVPPCNYDPEKWIQ [F9Q], with 3.05. Consider AGSRQALSYEVPPCNYDPEKWIQ [F9Y], for which the protein stability index came to 2. For AGSRQALSDEVPPCNYDPEKWIQ [F9D] the value was 3.05; for AGSRQALSKEVPPCNYDPEKWIQ [F9K], 3.19. Turning to AGSRQALSREVPPCNYDPEKWIQ [F9R], the protein stability index is 2.78.

As to AGSRQALSEEVPPCNYDPEKWIQ [F9E], the protein stability index amounted to 3.49.

Regarding AGSRQALSSEVPPCNYDPEKWIQ [F9S], the protein stability index came to 2.77. For AGSRQALSMEVPPCNYDPEKWIQ [F9M] the value was 2.29.

As for AGSRQALSPEVPPCNYDPEKWIQ [F9P], the protein stability index is 3.09. Then AGSRQRLSFEVPPCNYDPEKWIQ [A6R], with 2.29; and AGSRQVLSFEVPPCNYDPEKWIQ [A6V], with 2.59; and AGSRQTLSFEVPPCNYDPEKWIQ [A6T], with 1.53. For AGSRQQLSFEVPPCNYDPEKWIQ [A6Q] the value was 1.99. On to AGSRQSLSFEVPPCNYDPEKWIQ [A6S], for which the protein stability index stood at 1.6.

Consider AGSRQWLSFEVPPCNYDPEKWIQ [A6W], for which the protein stability index was determined as 3.24.

AGSRQALSFEYPPCNYDPEKWIQ [V11Y]: the protein stability index came to 3.25. For AGSRQALSFEWPPCNYDPEKWIQ [V11W] the value was 2.04; for AGSRQALSFEQPPCNYDPEKWIQ [V11Q], 2.38; for AGSRQALSFEPPPCNYDPEKWIQ [V11P], 1.75. Then AGSRQALSFEEPPCNYDPEKWIQ [V11E], with 2.07. For AGSRQALSFECPPCNYDPEKWIQ [V11C] the value was 2.02; for AGSRQALSFEGPPCNYDPEKWIQ [V11G], 1.63.

As for AGSRQALSFEIPPCNYDPEKWIQ [V11I], the protein stability index came out at 2.6.

Consider AGSRQALSFEMPPCNYDPEKWIQ [V11M], for which the protein stability index was 2.11. For AGSRQALSFEHPPCNYDPEKWIQ [V11H] the value was 1.93. On to AGSRQALSFEKPPCNYDPEKWIQ [V11K], for which the protein stability index was found to be 2.61. Then AGSRQALSFEAPPCNYDPEKWIQ [V11A], with 2.52; and AGSRQALSFELPPCNYDPEKWIQ [V11L], with 1.3. AGSRQALSFENPPCNYDPEKWIQ [V11N]: the protein stability index turned out to be 1.68. On to AGSRQALSFERPPCNYDPEKWIQ [V11R], for which the protein stability index is 2. Then AGSRQALSFEDPPCNYDPEKWIQ [V11D], with 2.93; and AGSRQALSFESPPCNYDPEKWIQ [V11S], with 1.84. Consider AGSRQALSFETPPCNYDPEKWIQ [V11T], for which the protein stability index amounted to 1.89. Then AGSRQALSFEVAPCNYDPEKWIQ [P12A], with 1.79; and AGSRQALSFEVQPCNYDPEKWIQ [P12Q], with 2; and AGSRQALSFEVEPCNYDPEKWIQ [P12E], with 2.14. For AGSRQALSFEVSPCNYDPEKWIQ [P12S] the value was 1.71; for AGSRQALSFEVVPCNYDPEKWIQ [P12V], 2.72.

For AGSRQALSFEVCPCNYDPEKWIQ [P12C], the protein stability index worked out at 2.41. On to AGSRQALSFEVGPCNYDPEKWIQ [P12G], for which the protein stability index came to 1.37. For AGSRQALSFEVRPCNYDPEKWIQ [P12R] the value was 1.81; for AGSRQALSFEVDPCNYDPEKWIQ [P12D], 1.97. For AGSRQALSFEVIPCNYDPEKWIQ [P12I] the value was 1.17; for AGSRQALSFEVWPCNYDPEKWIQ [P12W], 2.69; for AGSRQALSFEVMPCNYDPEKWIQ [P12M], 2.33.

Take AGSRQALSFEVLPCNYDPEKWIQ [P12L]: the protein stability index was found to be 4.23. Then AGSRQALSFEVNPCNYDPEKWIQ [P12N], with 1.67; and AGSRQALSFEVTPCNYDPEKWIQ [P12T], with 1.99. AGSRQALSFEVFPCNYDPEKWIQ [P12F]: the protein stability index amounted to 2.92. On to AGSRQALSFEVKPCNYDPEKWIQ [P12K], for which the protein stability index is 1.73. Then AGSRQALSFEVPPCNQDPEKWIQ [Y16Q], with 2.54.
